Numbering of substitutions follows the chain as printed. Non-standard residues stand in square brackets, D forms with d. No end group written: not given here. pGlu = O=C1CC[C@@H](C(=O)O)N1

Experimental findings from patent publication US20220401557A1 (Chugai, published 2022) are described below.

The target in assay [1] is CD3 on NFAT-RE-luc2-Jurkat cells (human, UniProt P07766 23-207). The assay can be described thus: cell-based or functional assay.
Assay [2] concerns the target T1, synthetic peptide (epitope peptide) corresponding to the sequence from the N terminus to position 15 of CD3.
T1 construct: also called XDGNEEMGGITQTPY
T1 peptide: [pGlu]DGNEEMGGITQTPY
Nature of the assay: X-ray crystal structure of the Fab with the epitope peptide. How it is done: Furthermore, a sample was prepared by adding, to the obtained anti-CD3 antibody Fab fragment, a synthetic peptide (epitope peptide) which corresponds to the sequence from the N terminus to position 15 of CD3 and shown in SEQ ID NO: 14 below: XDGNEEMGGITQTPY (X: L-pyroglutamic acid) (SEQ ID NO: 14) to become 2 mM. The vapor diffusion method was used to obtain crystals from the sample by allowing the sample to stand at 20° C. under reservoir conditions of 100 mM MES buffer at pH7.0, 0.91% PEG3350, and 1.0 M sodium citrate tribasic dihydrate. These crystals were subject to X-ray crystallography based on the above-mentioned crystal structure of the anti-CD3 antibody Fab fragment alone according to a method known to those skilled in the art to obtain the crystal structure of a complex of the anti-CD3 antibody Fab fragment and the epitope peptide from the diffraction intensity data at 25 to 3.5 angstrom resolution. Its crystallographic reliability factor R (R factor) and Free R value (R free) were 18.55% and 26.53%, respectively.

The target in a further assay is T2, CD3εδ heterodimer (Homo sapiens (Human), UniProt P07766 22-126; P04234 22-100).
T2 construct: also called CD3ε8
T2 sequence (P07766 other isoform, or with tags, fused parts or gaps mutant limits assumed, chain 1 of 2): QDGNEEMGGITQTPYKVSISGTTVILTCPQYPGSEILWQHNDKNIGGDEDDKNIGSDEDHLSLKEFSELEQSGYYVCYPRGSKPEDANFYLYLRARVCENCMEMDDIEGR
T2 sequence (P04234 other isoform, or with tags, fused parts or gaps mutant limits assumed, chain 2 of 2): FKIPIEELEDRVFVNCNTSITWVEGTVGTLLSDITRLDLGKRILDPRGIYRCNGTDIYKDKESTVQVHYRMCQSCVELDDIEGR
The assay can be described thus: SPR, Biacore T200; antibody captured on Protein G (CM3 chip), CD3εδ heterodimer as analyte, single cycle kinetics, 37 C. How it is done: The activity of binding to the CD3εδ heterodimer was measured for: the rat anti-CD3 antibody containing as the variable region the heavy chain variable region (SEQ ID NO: 10) and the light chain variable region (SEQ ID NO: 11) described in Reference Example 1; a combination of a human anti-CD3 antibody and a rat anti-CD3 antibody which contains as the variable region a heavy chain variable region (SEQ ID NO: 12) and a light chain variable region (SEQ ID NO: 13) where the light chain has been humanized by a method known to those skilled in the art; a humanized anti-CD3 antibody which contains as the variable region a heavy chain variable region (SEQ ID NO: 12) and a light chain variable region (SEQ ID NO: 13), which have been humanized by a method known to those skilled in the art; and AN121 which contains as the variable region a heavy chain variable region (SEQ ID NO: 43) and a light chain variable region (SEQ ID NO: 13). The heavy chain variable regions were fused with F760mnP17 (SEQ ID NO: 39) used as the constant region and the light chain variable regions were fused with the Kappa chain (SEQ ID NO: 36) used as the constant region, and the antibodies were expressed according to the method of Reference Example 2.
The activity of binding to the CD3εδ heterodimer was assessed using BiacoreT200. Specifically, Protein G was immobilized onto a CM3 chip by a method known to those skilled in the art, and antibodies to be evaluated were bound to the immobilized Protein G. Then, the CD3εδ heterodimer prepared at 4000, 1000, 250, 62.5, 15.6, and 3.9 nM was bound thereto, and the binding was evaluated using the single cycle kinetics mode. Measurements were taken under conditions of 20 mM ACES, 150 mM NaCl, and pH7.4 at 37° C.
(In general: Surface plasmon resonance follows binding to a sensor surface in real time, without labels.)

Sequence of CD3 on NFAT-RE-luc2-Jurkat cells (P07766 23-207): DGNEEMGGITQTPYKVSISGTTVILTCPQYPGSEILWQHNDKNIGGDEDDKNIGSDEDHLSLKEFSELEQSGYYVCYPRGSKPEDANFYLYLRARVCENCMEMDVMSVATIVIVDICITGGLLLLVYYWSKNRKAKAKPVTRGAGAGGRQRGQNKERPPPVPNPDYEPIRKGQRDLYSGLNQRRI

B1: hCE115HAuPA20/GLS//GCH065 (bispecific antibody, human IgG1, kappa, N297A)
heavy 1: QDGNEEMGGITQTPYKVSISLSGRSDNHGGGSQVQLVESGGGVVQPGRSLRLSCAASGFTFSNAWMHWVRQAPGKGLEWVAQIKAKSNNYATYYAESVKGRFTISRDDSKNSLYLQMNSLKTEDTAVYYCRYVHYGAYYGVDAWGQGTTVTVSSASTKGPSVFPLAPSSKSTSGGTAALGCLVKDYFPEPVTVSWNSGALTSGVHTFPAVLQSSGLYSLSSVVTVPSSSLGTQTYICNVNHKPSNTKVDKKVEPKSCDKTHTCPPCPAPELRGGPKVFLFPPKPKDTLMISRTPEVTCVVVDVSHEDPEVKFNWYVDGVEVHNAKTKPREEQYASTYRVVSVLTVLHQDWLNGKEYKCKVSNKALPAPIEKTISKAKGQPREPQVYTLPPSRKEMTKNQVSLTCLVKGFYPSDIAVEWESNGQPENNYKTTPPYLDSDGSFFLYSKLTVDKSRWQQGNVFSCSVMHEALHNHYTQKSLSLSP
light 1: DIVMTQSPLSLPVTPGEPASISCRSSQSLVHSNRNTYLHWYQQKPGQAPRLLIYKVSNRFSGVPDRFSGSGSGTDFTLKISRVEAEDVGVYYCGQGTQVPYTFGQGTKLEIKRTVAAPSVFIFPPSDEQLKSGTASVVCLLNNFYPREAKVQWKVDNALQSGNSQESVTEQDSKDSTYSLSSTLTLSKADYEKHKVYACEVTHQGLSSPVTKSFNRGEC
heavy 2: QVQLVQSGAEVKKPGASVTVSCKASGYTFTDYEMHWIRQPPGEGLEWIGAIDGPTPDTAYSEKFKGRVTLTADKSTSTAYMELSSLTSEDTAVYYCTRFYSYTYWGQGTLVTVSSASTKGPSVFPLAPSSKSTSGGTAALGCLVKDYFPEPVTVSWNSGALTSGVHTFPAVLQSSGLYSLSSVVTVPSSSLGTQTYICNVNHKPSNTKVDKKVEPKSCDKTHTCPPCPAPELRGGPKVFLFPPKPKDTLMISRTPEVTCVVVDVSHEDPEVKFNWYVDGVEVHNAKTKPREEQYASTYRVVSVLTVLHQDWLNGKEYKCKVSNKALPAPIEKTISKAKGQPREPQVYTLPPSREEMTKNQVSLTCLVKGFYPSDIAVEWESNGQPENNYKTTPPYLDSDGSFFLYSKLTVDKSRWQQGNVFSCSVMHEALHNHYTQESLSLSP
light 2: B1 light 1 with S28P
B1: in assay [1], the “increase rate due to the protease treatment (luciferase, uPA-treated / untreated), antibody 0.1 nM” value came out at 1.1 ratio and the “increase rate due to the protease treatment (luciferase, uPA-treated / untreated), antibody 1 nM” value worked out at 2.4 ratio.

B2: Anti-CD3 antibody Fab fragment (humanized anti-CD3 antibody) (Fab, V domains shown)
VH: QVQLVESGGGVVQPGRSLRLSCAASGFTFSNAWMHWVRQAPGKGLEWVAQIKAKSNNYATYYAESVKGRFTISRDDSKNSLYLQMNSLKTEDTAVYYCRYVHYGAYYGVDAWGQGTTVTVSS
VL: DIVMTQSPLSLPVTPGEPASISCRSSQSLVHSNRNTYLHWYQQKPGQAPRLLIYKVSNRFSGVPDRFSGSGSGTDFTLKISRVEAEDVGVYYCGQGTQVPYTFGQGTKLEIKR
notes: Fab made by papain cleavage of a One-arm antibody
For B2, the binding result in assay [2] is listed as “binds”.

B3: CE115VH-F760mnP17/GLS3000-k0 (Combination of rat anti-CD3 antibody and human anti-CD3 antibody) (antibody, human IgG1, kappa, N297A, V domains shown)
VH: EVQLVETGGSLVQPGKSLKLTCATSGFTFSNAWMHWVRQSPEKQLEWVAQIKAKSNNYATYYAESVKGRFTISRDDSKSNIYLQMNSLKEEDTAVYYCRYVHYGAYYGVDAWGQGTSVTVSS
VL: B2 VL
Consider B3, for which, in the assay with CD3εδ heterodimer, the dissociation constant Kd stood at 262 nM, the koff turned out to be 0.0124 s⁻¹ and the kon is 47300 M⁻¹ s⁻¹.

B4: AN121H-F760mnP17/GLS3000-k0 (AN121) (antibody, human IgG1, kappa, N297A, V domains shown)
VH: QVQLVESGGGLVQPGRSLRLSCAASGFTFSNAWMHWVRQAPGKGLEWVAQIKDKANGYNAYYAESVKGRFTISRDDSKNSIYLQMNSLKTEDTAVYYCRYVHYTTYAGFSYKFGVDAWGQGTTVTVSS
VL: B2 VL
On to B4, for which, in the assay with CD3εδ heterodimer, the Kd is 9.68 nM, the koff stood at 0.000723 s⁻¹ and the kon was 74700 M⁻¹ s⁻¹.

B5: CE115HA000-F760mnP17/GLS3000-k0 (Humanized anti-CD3 antibody) (antibody, human IgG1, kappa, N297A, V domains shown)
VH: B2 VH
VL: B2 VL
As for B5, in the assay with CD3εδ heterodimer, the equilibrium dissociation constant (Kd) came to 556 nM, the off-rate (koff) was found to be 0.0288 s⁻¹ and the association rate constant (kon) came to 51800 M⁻¹ s⁻¹.

B6: CE115VH-F760mnP17/rCE115VL-k0 (Rat anti-CD3 antibody) (antibody, human IgG1, kappa, N297A, V domains shown)
VH: B3 VH
VL: DVVMTQTPVSMSVSLGGQVSISCRSSQSLVHNNGNTYVSWYIQKPSQSPQLLIYKVSNRFSGISDRFSGSGSGTDFTLKISRVEPDDLGVYYCGQGTQDPYTFGAGTKLELKR
Take B6: in the assay with CD3εδ heterodimer, the Kd came to 191 nM, the koff is 0.00771 s⁻¹ and the kon worked out at 40400 M⁻¹ s⁻¹.

One may read the Kd as the concentration at which binding is half-saturated. Broadly, the koff is the first-order rate constant of dissociation. Usually kon stands for the rate constant with which the complex forms.
